T1: 14-3-3 protein zeta (14-3-3ζ) (UniProt P63104 1-245)
T1 chain: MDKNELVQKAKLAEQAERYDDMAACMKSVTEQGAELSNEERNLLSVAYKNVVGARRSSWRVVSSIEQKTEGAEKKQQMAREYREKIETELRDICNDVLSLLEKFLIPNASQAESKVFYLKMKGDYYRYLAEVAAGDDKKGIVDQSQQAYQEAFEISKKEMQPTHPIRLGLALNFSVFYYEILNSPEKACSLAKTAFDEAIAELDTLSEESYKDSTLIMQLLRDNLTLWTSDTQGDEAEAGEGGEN

Square brackets hold non-standard residues; d marks the D form. Ends that are not written are not given here. pS = N[C@@H](COP(=O)(O)O)C(=O)O

The experiment concerns the target T1, 14-3-3 protein zeta (14-3-3ζ). Nature of the experiment: FP.
In turn, SRTP[pS]LPTPPTRE (also: fluorescein (FITC) label, position not given here) [Fluorescein-labelled mono-phospho-Tau pS214 peptide] gave a Kd greater than 100 µM. On to VTSKCG[pS]LGNIHHK (also: fluorescein (FITC) label, position not given here) [Fluorescein-labelled mono-phospho-Tau pS324 peptide], for which the Kd was greater than 100 µM. SRTP[pS]LPTPPTREGGGSGGGSGGGVTSKCG[pS]LGNIHHK (also: fluorescein (FITC) label, position not given here) [Fluorescein (FITC)-labelled bi-phospho Tau peptide pS2 (Tau^210–222-GGGSGGGSGGG-Tau^318–331)] came in with a Kd of 0.945 µM.

One may read the Kd as the equilibrium constant for the complex coming apart. Read a high Kd as a looser complex.

(Values after publication PMC12313985 (2025).)
